Here are results for 2 sequences from US10400009B2, “β-sheet breaker peptide used for preventing and/or treating alzheimer's disease” (TIANJIN MEDICAL UNIVERSITY, priority 2014, dated 2019).

Ends that are not written are not given here.

Assay [1] relates to APP/PS1 double transgenic mice. Briefly: Morris Water Maze place navigation test. The class given is in vivo. As to conditions: nasal 33 mg/ml at 5 μl/d, 30 days, n = 7. As to the method: (§1) 1.1 Animals: Fourteen APP/PS1 double transgenic mice were randomized into model group and drug administration group. Seven C57BL/6J mice with the same age and genetic background were used in normal control group. By way of nasal administration, 33 mg/ml HPYD in physiological saline solutions were administered to the mice in drug administration group in a rate of 5 μl/d using drug delivery devices, and the same volume of physiological saline solutions were administered nasally to the mice in normal control group and model group. The detection was performed 30 days after the administration.
(§2) 1.2 Morris Water Maze test: (1) Place Navigation: A platform is placed in a circle within the third quadrant of water maze. Each mouse swims twice (90 s/time) during the same time periods of every day for 5 days. The time required for a mouse's finding and climbing onto the platform, i.e. escape latency, is recorded. If the mouse could not find the platform within 90 s, it is guided to the platform and kept for 20 s. In this case, the escape latency is recorded as 90 s. (2) Spatial Probe: The platform is removed at day 6, and during the same time period, a water entry point is optionally selected for putting a mouse into water. Each mouse swims once (90 s/time). The swim track of the mouse within 90 s, the numbers of leaping over the hidden platform, the original swimming angle after water entry, and so on are recorded for testing the memory ability of the mouse.
1.3 Data processing: The data obtained is expressed in mean±standard deviation (χ±5). Statistical analysis was performed using statistical software SPSS16.0. One-way ANOVA and pairwise comparison were employed. P<0.05 represents that the difference is statistically significant.

Assay [2] deals with T1, Aβ1-42 (Homo sapiens, UniProt P05067).
T1 construct: purchased Sigma, Inc. (US)
Briefly: ThT fluorescence spectrophotometry of Aβ1-42 aggregation. Conditions: Aβ1-42 11.07 μmol/L, peptide 44.3 μmol/L, 37° C., 24 h, PBS pH 7.4; x ± S. The format is biochemical. How it is done: 1.2 the Inhibition Effect of HPYD on Aβ Aggregation was Analyzed by ThT Fluorescence Spectrophotometry.
The degree of Aβ aggregation may be reflected by ThT fluorescence intensity. Aβ1-42 lyophilized powder was formulated in 50 mmol/L PBS phosphate buffer (pH 7.4) to obtain a solution in a concentration of 22.15 μmol/L. The polypeptides H102 and HPYD were also formulated in 50 mmol/L PBS phosphate buffer (pH 7.4) to obtain a solution in a concentration of 88.60 μmol/L. In the experiment, Aβ1-42 was mixed with H102 or HPYD in 1:1 volume ratio to a final concentration of 11.07 μmol/L and 44.3 μmol/L, respectively. […] ThT fluorescence intensity was measured by using VARIAN PTC-Au00-01058 fluorescence spectrophotometer at the excitation wavelength of 453 nm and emission wavelength of 478-486 nm. […]
The fluorescence intensity from the aging group (in which Aβ1-42 lyophilized powder was formulated in 50 mmol/L PBS phosphate buffer (pH 7.4) to obtain a solution in a concentration of 11.07 μmol/L, and the obtained solution was incubated at 37° C. for 24 hours) from which baseline fluorescence intensity was subtracted would be taken as 100%, and the inhibitory rate of the drug on Aβ1-42 in each group was calculated. […]
Inhibitory rate=(the relative fluorescence intensity of 1-β sheet blocking peptide/the relative fluorescence intensity of Aβ1-42)×100%

Assay [3] addresses T1, Aβ1-42. Kind of assay: FT-IR spectrometry of Aβ1-42 secondary structure (β-sheet). The class given is biochemical. As to conditions: co-incubation with Aβ1-42 at 37° C. for 72 h. As to the method: 1.3 the Inhibition Effect of HPYD on Aβ1-42 Aggregation was Observed by FT-IR Spectrometry.
22.15 μmol/L Aβ1-42 solution in PBS phosphate buffer was formulated in quadruplicate as described in the above 1.2 section. To two solutions, PBS phosphate buffer was added in equal volume respectively and incubated alone at 37° C. for 30 min (30 min, aging group) and 72 h (72 h, aging group). To the other two solutions, H102 (88.60 μmol/L) and HPYD (88.60 μmol/L) were added in equal volume respectively and co-incubated at 37° C. for 72 h. After incubation, each sample was vacuum lyophilized. Then, 3.5 μg of H102 and 3.7 μg of HPYD were respectively mixed with anhydrous potassium bromide (120-180 mg) thoroughly, and pressurized for 5 min by tablet machine to form potassium bromide tablet. The measurement and analysis were carried out by using Nicolet Magna 760 FT-IR instrument, with a resolution of 4 cm^−1 and a spectrum range of 3500-400 cm^−1. The amide I band spectrum at 1700-1600 cm^−1 was analyzed using Origin 8.0 software. The fitting range was expanded to 1750-1550 cm^−1 due to the complexity of the components in the samples and the effect of vibration peaks close to amide I band on the secondary structure.
In the above-mentioned studies, Aβ1-42 was used as negative control, and H102 was used as positive control.

The test system of assay [4] is APP/PS1 double transgenic mice. Kind of assay: Morris Water Maze spatial probe test. As to conditions: 30 days, n = 7. The format is in vivo. How it is done: as §1
as §2, with “(2) Spatial Probe: The platform is removed at day 6, and during the same time period, a water entry point is optionally selected for putting a mouse into water. Each mouse swims once (90 s/time).” left out, “mouse. […]” for “mouse.”

The test system of a further assay is APP. Kind of assay: Immunohistochemical staining of APP in brains of APP/PS1 double transgenic mice. The format is in vivo. Conditions: nasal 33 mg/ml at 5 μl/d, 30 days, n = 7, x ± S. How it is done:
as §1, with “control group. These mice were all purchased from the Experimental Animal Research Center of Peking Union Medical College, Chinese Academy of Medical Sciences. By way” for “control group. By way”, “administration group at a rate” for “administration group in a rate”, “detection was carried out 30 days” for “detection was performed 30 days”
(§3) 1.2 Drugs and reagents: Anti-Aβ1-42 antibody was purchased from Chemicon Inc. Anti-APP antibody, ready-to-use SABC Immunohistochemistry Staining Kit, DBA Color Development Kit and 0.1% polylysine were purchased from Wuhan Boster Biological Technology, Ltd. Other reagents have analytical purity.
(§4) 1.3 Immunohistochemical Staining: After Morris Water Maze was carried out in order to determine the learning ability of the experimental mice, the mice were anaesthetized by celiac injection with 0.1 kg/L chloral hydrate at a dose of 4 ml/kg. Rapid intubation was carried out via left ventricle. […]

Assay [5] has as its target T2, Aβ (Homo sapiens, UniProt P05067). Kind of assay: Immunohistochemical staining of Aβ in brains of APP/PS1 double transgenic mice. The class given is in vivo. As to conditions: nasal 33 mg/ml at 5 μl/d, 30 days, n = 7, x ± S. Also noted: from tissue; host or cells: brain (cortex, hippocampus CA1) of APP/PS1 double transgenic mice. As to the method: as §1, with “control group. These mice were all purchased from the Experimental Animal Research Center of Peking Union Medical College, Chinese Academy of Medical Sciences. By way” for “control group. By way”, “administration group at a rate” for “administration group in a rate”, “detection was carried out 30 days” for “detection was performed 30 days”
as §3, §4

Assay [6] has as its target T1, Aβ1-42. Briefly: Electron microscopy of Aβ1-42 fiber formation. The format is biochemical. Conditions: for Aβ fibers observed by electron microscope: co-incubation with Aβ1-42 for 5 days at 37° C. How it is done: 1.4 the Inhibition Effect of HPYD on Aβ Aggregation was Observed by Using Electron Microscope. Aβ1-42 solution in PBS phosphate buffer (11.07 μmol/L, 20 μl) was formulated as described in the above 1.2 section, and incubated alone at 37° C. for 5 days. Meanwhile, Aβ1-42 (22.15 μmol/L, 10 μl) was respectively co-incubated with […] or HPYD (88.61 μmol/L, 10 μl) under the same conditions for 5 days. 5 μl sample was taken from each group and dropped on the carbon support film on 300-mesh deionized copper grids, and then kept still at ambient temperature for 15 min. The samples were negatively stained in dark with 2% uranyl acetate for 2 min. After drying, the samples were observed using transmission electron microscope. In the above-mentioned studies, Aβ1-42 was used as negative control, and […] was used as positive control.

Assay [7] deals with T2, Aβ. Conditions: from Chinese patent CN 101531703A; cited from earlier work.

For HKQLPFYEED [HPYD], the “daily mean escape latency” value in assay [1] (1 d) was 88.127 ± 4.137 s; in assay [1] (2 d), 80.404 ± 15.646 s; in assay [1] (3 d), 67.740 ± 24.389 s; in assay [1] (4 d), 45.950 ± 19.211 s; in assay [1] (5 d), 24.974 ± 9.685 s. Also, the “Inhibitory rate (%) on Aβ1-42 aggregation” value with Aβ1-42 [2] worked out at 27.013 ± 0.018 %. In addition, the “content of β-sheet (FT-IR, 1640-1620 cm^−1)” value with Aβ1-42 [3] is reported as “lowest”. Further, in the assay with Aβ1-42 [3], the “transmittance in each wavenumber representing secondary structures, versus Aβ incubated alone for 72 h” value was “significantly higher transmittance”. Also, the “numbers of leaping over the hidden platform (numbers)” value in assay [4] (day 6, 90 s, nasal 33 mg/ml at 5 μl/d) turned out to be 2.25 ± 1.258 numbers. Further, in assay [4] (day 6, nasal 33 mg/ml at 5 μl/d), the “Orientation angles (degree)” value was determined as 40.478 ± 26.533 degree. Also, the “APP ratio of positive cells (%), Cortex” value in the assay on APP was determined as 14.25 ± 3.25 %. Also, the “APP ratio of positive cells (%), Hippocampus CA1 area” value in the assay on APP is 12.75 ± 1.83 %. Also, the “Aβ ratio of positive cells (%), Cortex” value with Aβ [5] is 15.85 ± 2.77 %. For the same sequence, the “Aβ ratio of positive cells (%), Hippocampus CA1 area” value in the assay with Aβ [5] is 11.09 ± 2.47 %. Also, the “inhibition effect on Aβ aggregation by electron microscopy, compared with H102” value with Aβ1-42 [6] (co-incubation with Aβ1-42 for 5 days) is “stronger inhibition effect on Aβ aggregation than H102”. Moreover, the “Aβ fibers observed by electron microscope” value with Aβ1-42 [6] was “significantly decreased and thinner”.
Turning to HKQLPFFEED [H102, reference compound], in the assay with Aβ1-42 [2], the “Inhibitory rate (%) on Aβ1-42 aggregation” value was found to be 14.168 ± 0.038 %. Also, in the assay with Aβ1-42 [3], the “transmittance in each wavenumber representing secondary structures, versus Aβ incubated alone for 72 h” value was “significantly higher transmittance”. The “inhibitory rate on Aβ aggregation” value in the assay with Aβ [7] is recorded as 27.84%. For the same sequence, in the assay with Aβ1-42 [6], the “Aβ fibers observed by electron microscope” value was “Aβ fibers were significantly decreased”.
